Measured values reported in article PMC6384913, “Exploring the suitability of RanBP2-type Zinc Fingers for RNA-binding protein design”.

Assays:
(ABI3-5Sup-ZF)x2 [1] = biological target: T1, (ABI3-5Sup-ZF)x2 (Arabidopsis thaliana, UniProt F4JCU0 379-406); experiment: ITC; ITC: 50 mM Tris pH 7.5, 150 mM NaCl, 1 mM DTT, 0.1 mM ZnCl2, 25 °C; BLI: 50 mM Tris pH 7.5, 150 mM NaCl, 1 mM DTT, 0.1% BSA, 0.02% Tween, 30 °C; conditions: protein: recombinant; tags: GST cleaved (HRV-3C)
T1 chain: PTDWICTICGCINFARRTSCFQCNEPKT

(FUS-ZF)x2 [2] = biological target: T2, (FUS-ZF)x2 (Xenopus laevis, UniProt Q7ZXQ2 435-467); experiment: as above; conditions: protein: recombinant; tags: GST cleaved (HRV-3C)
T2 chain: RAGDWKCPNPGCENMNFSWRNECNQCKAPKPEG

(EWS-ZF)x2 [3] = biological target: T3, (EWS-ZF)x2 (Homo sapiens, UniProt Q01844-5 523-555); experiment: as above; conditions: protein: recombinant; tags: GST cleaved (HRV-3C)
T3 sequence (Q01844 518-550): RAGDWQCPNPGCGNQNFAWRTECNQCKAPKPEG

(ZRANB1-B-ZF)x2 = biological target: T4, (ZRANB1-B-ZF)x2 (Danio rerio, UniProt A0JMQ9 152-182); experiment: as above; conditions: protein: recombinant; tags: GST cleaved (HRV-3C)
T4 chain: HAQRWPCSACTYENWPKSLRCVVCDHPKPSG

(ABI3-5Sup-ZF)x2 [4] = biological target: T1, (ABI3-5Sup-ZF)x2; experiment: BLI; ITC: 50 mM Tris pH 7.5, 150 mM NaCl, 1 mM DTT, 0.1 mM ZnCl2, 25 °C; BLI: 50 mM Tris pH 7.5, 150 mM NaCl, 1 mM DTT, 0.1% BSA, 0.02% Tween, 30 °C; conditions: protein: recombinant; tags: GST cleaved (HRV-3C); label: 5' biotin
(hRBM10-ZF)x2 = biological target: T5, (hRBM10-ZF)x2 (Homo sapiens, UniProt P98175 212-243); experiment: as above; conditions: protein: recombinant; tags: GST cleaved (HRV-3C); label: 5' biotin
T5 chain: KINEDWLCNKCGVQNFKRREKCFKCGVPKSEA

(FUS-ZF)x2 [5] = biological target: T2, (FUS-ZF)x2; experiment: as above; conditions: protein: recombinant; tags: GST cleaved (HRV-3C); label: 5' biotin
(EWS-ZF)x2 [6] = biological target: T3, (EWS-ZF)x2; experiment: as above; conditions: protein: recombinant; tags: GST cleaved (HRV-3C); label: 5' biotin
(mRBM10-ZF N4D)x2 = biological target: T6, (mRBM10-ZF N4D)x2 (Mus musculus, UniProt Q99KG3-2 135-166+=GSGSG+135-166, V161M;internal_change); experiment: as above; conditions: protein: recombinant; tags: GST cleaved (HRV-3C); label: 5' biotin
T6 sequence: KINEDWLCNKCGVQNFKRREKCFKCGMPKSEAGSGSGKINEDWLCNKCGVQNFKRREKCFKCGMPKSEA

Binder | Kd ((ABI3-5Sup-ZF)x2 [4]) | Kd ((hRBM10-ZF)x2) | binding result ((FUS-ZF)x2 [5]) | binding result ((EWS-ZF)x2 [6]) | binding result ((ABI3-5Sup-ZF)x2 [4]) | binding result ((hRBM10-ZF)x2) | also measured
AAAGGUGGUAAA (ssRNA) [(GGU)x2] | – | – | – | – | – | – | Kd ((ABI3-5Sup-ZF)x2 [1]): 700 ± 100 nM; Kd ((FUS-ZF)x2 [2]): 200 ± 20 nM; Kd ((EWS-ZF)x2 [3]): 200 ± 30 nM; binding result ((ZRANB1-B-ZF)x2): no binding
AAAGGUGGUAAA (ssRNA) [(GGU)x2 biotin] | 1000 ± 10 nM | 500 ± 10 nM | – | – | – | – | Kd ((FUS-ZF)x2 [5]): 800 ± 70 nM; Kd ((EWS-ZF)x2 [6]): 800 ± 60 nM
AAAGGAGGAAAA (ssRNA) [(GGA)x2 biotin] | 2600 ± 1000 nM | 1400 ± 10 nM | no binding | no binding | – | – | –
AAAGGCGGCAAA (ssRNA) [(GGC)x2 biotin] | – | 2600 ± 30 nM | no binding | no binding | – | – | –
AAAGGGGGGAAA (ssRNA) [(GGG)x2 biotin] | 3000 ± 500 nM | 300 ± 30 nM | – | – | – | – | Kd ((FUS-ZF)x2 [5]): 1100 ± 300 nM; Kd ((EWS-ZF)x2 [6]): 1100 ± 10 nM; Kd ((mRBM10-ZF N4D)x2): 400 ± 30 nM
AAAGGAGGAAAA (ssRNA) [(GGA)x2] | – | – | – | – | – | – | Kd ((ABI3-5Sup-ZF)x2 [1]): 1000 ± 100 nM
AAAAGUAGUAAA (ssRNA) [(AGU)x2 biotin] | – | – | no binding | no binding | no binding | no binding | –
AAAGAUGAUAAA (ssRNA) [(GAU)x2 biotin] | – | – | no binding | no binding | no binding | no binding | –
AAAAAAAAAAAA (ssRNA) [(AAA)x2 biotin] | – | – | no binding | no binding | no binding | no binding | –
AAAAAAAAAAAA (ssRNA) [polyA control 12-mer] | – | – | – | – | – | – | binding result ((ZRANB1-B-ZF)x2): no binding
